Test results: the supplement of paper PMC9732359
± gives the uncertainty stated by the source.

Assay: protein stability index of a GFP-peptide fusion (yeast GPS) (PSI 1-4); higher = more stable; sorted into four equal gates, so the index is relative within each strain
Outline: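 Plasmids in a pooled yeast library fused tiled 17-residue yeast protein peptides downstream of GFP and also expressed Cherry. Mid-log cultures grown without leucine were sorted into four equal gates by GFP/Cherry fluorescence ratio. Each gate's plasmids were PCR-amplified and Illumina-sequenced, and reads were matched to strains by barcodes. The protein stability index is derived by multiplying each gate's read frequency by its gate number and summing the results.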

Sequence | protein stability index (doa10∆) | protein stability index (pdr5∆) | protein stability index (san1∆) | protein stability index (ubr1∆)
KIELIKNNLLIPDLSIQ [RPN12] | 2.75 ± 0.055 | 2.23 ± 0.042 | 2.66 ± 0.046 | 2.06 ± 0.036
FRSYMDQEKKYGMSITE [RPB2] | 1.69 ± 0.054 | 2.43 ± 0.063 | 2.89 ± 0.065 | 2.75 ± 0.032
CDLDFPLRENTNVLDVK [YDL116W/NUP84] | 2.72 ± 0.065 | 2.36 ± 0.055 | 2.36 ± 0.077 | 2.56 ± 0.037
DPDTKKVKESPANDQAS [YIL149C/MLP2] | 3.04 ± 0.084 | 3.21 ± 0.078 | 3.06 ± 0.049 | 3.12 ± 0.093
LAGVLYESRNVAKRRFE [RRP6] | 2.76 ± 0.066 | 3.12 ± 0.061 | 2.93 ± 0.077 | 3.12 ± 0.047
RYANKRFRKAQCPIIER [RPS5] | 2.34 ± 0.16 | 2.12 ± 0.14 |  | 1.5 ± 0.054
EEGYSGVEVRVTPTKTE [RPS3] | 2.18 ± 0.16 | 3.15 ± 0.11 | 2.88 ± 0.091 | 3.11 ± 0.08
DAMIAQRSKKIQPTAKV [DIS3] | 1.83 ± 0.082 | 1.99 ± 0.084 | 1.59 ± 0.067 | 1.69 ± 0.068
VNAIKNEVKEWAVTLDT [DSN1] | 3.11 ± 0.13 | 2.82 ± 0.13 | 3.1 ± 0.074 | 3.33 ± 0.12
DAKSSAYSSRFQTPFRR [RPL5] | 2.82 ± 0.067 | 2.83 ± 0.052 | 2.78 ± 0.054 | 2.91 ± 0.05
RDLILKKGEYARFKSKD [SMC3] | 2.81 ± 0.17 | 2.72 ± 0.18 | 2.65 ± 0.21 | 2.77 ± 0.076
KENDTVMNTKLLQEGGS [ESC2] | 3.16 ± 0.12 | 3.2 ± 0.092 | 3.04 ± 0.078 | 3.21 ± 0.076
LVGRKPAEHPFISAARY [RPC37] | 2.23 ± 0.14 | 1.86 ± 0.074 | 2.08 ± 0.15 | 2.54 ± 0.084
NLTEFVQMDKIRKIVRK [AAR2] | 2.77 ± 0.14 | 2.43 ± 0.1 | 1.9 ± 0.13 | 2.34 ± 0.13
TAKPAFSFGAKPAEKNN [YJL041W/NSP1] | 3.19 ± 0.11 | 3.35 ± 0.12 | 3.19 ± 0.11 | 3.4 ± 0.15
ILYGPPGTGKTLLARAV [RPT6] | 3.4 ± 0.16 | 3.09 ± 0.23 | 3.35 ± 0.16 | 2.95 ± 0.21
AKAKAVTSKVRNAEFKV [YMR153W/NUP53] | 1.38 ± 0.15 | 1.67 ± 0.13 |  | 1.3 ± 0.13
FVVKLDTVDRLIIKYQK [GAL11] | 2.25 ± 0.042 | 2.3 ± 0.048 | 2.54 ± 0.054 | 2 ± 0.039
PLVQADLYEQIGIDPPR [RPT3] | 2.48 ± 0.074 | 2.83 ± 0.1 | 2.63 ± 0.066 | 2.83 ± 0.081
SKRVYKILSPTMYMEVY [CDC53] | 2.29 ± 0.075 | 2.68 ± 0.098 | 2.15 ± 0.076 | 2.63 ± 0.092
GVRPFGVSLLIAGHDEF [PRE8] | 2.46 ± 0.1 | 1.95 ± 0.096 | 1.94 ± 0.2 | 1.93 ± 0.075
SKVYFNNQSKEKADYED [RPN12] | 2.56 ± 0.076 | 2.64 ± 0.067 | 2.67 ± 0.098 | 2.48 ± 0.054
CRGELKADIGKPGRMPF [CDC53] | 2.21 ± 0.071 | 2.65 ± 0.069 | 2.91 ± 0.085 | 2.97 ± 0.067
DETYKGVEEVEGEYELT [RPL5] | 3.21 ± 0.16 | 3.43 ± 0.15 | 3.16 ± 0.23 | 2.82 ± 0.27
MNLDFDIEEGPITSKSW [MCD1] | 2.85 ± 0.15 | 3.16 ± 0.093 | 3.17 ± 0.072 | 3.49 ± 0.18

Sequence | protein stability index (doa10∆) | protein stability index (pdr5∆) | protein stability index (san1∆) | protein stability index (ubr1∆)
AATNETFENINSLFYLK [IRR1] | 2.43 ± 0.25 | 2.37 ± 0.21 | 2.71 ± 0.17 | 
DKFFTLSAENIEERLVA [SCL1] | 3.01 ± 0.074 | 3.01 ± 0.084 | 3.06 ± 0.082 | 3.02 ± 0.069
NDWKLETERLISQSQLG [SIN4] | 3.42 ± 0.096 | 3.11 ± 0.14 | 3.3 ± 0.068 | 3.53 ± 0.19
ALGIKVTNPKGRLALEA [RPL32] |  | 3.37 ± 0.18 | 2.87 ± 0.23 | 3.36 ± 0.19
GINQILGNEKNQASTSK [CDC53] | 3.08 ± 0.15 | 3.25 ± 0.14 | 3.11 ± 0.092 | 3.2 ± 0.073
KIENSVQIGAEIILDFL [CSI1] | 2.73 ± 0.24 | 2.83 ± 0.16 | 2.38 ± 0.12 | 2.61 ± 0.11
CNAQPITRSVMRFNIEI [BRR2] | 2.71 ± 0.082 | 2.82 ± 0.066 | 2.77 ± 0.058 | 3.02 ± 0.064
TGLHFGRLSLRSLTAYA [QCR10] | 1.22 ± 0.044 | 1.5 ± 0.059 | 1.39 ± 0.095 | 1.65 ± 0.055
EKRWNDELELEDAIHIA [PRE8] | 3.35 ± 0.17 | 3.25 ± 0.1 | 3.26 ± 0.13 | 3.23 ± 0.2
YITNADDSTKFQLVNDV [SIR3] | 3.01 ± 0.11 | 3.18 ± 0.1 | 2.94 ± 0.092 | 3.24 ± 0.071
MLAAQDVAAKCKEVGIT [RPS14A] | 2.38 ± 0.057 | 2.38 ± 0.061 | 2.07 ± 0.068 | 2.04 ± 0.041
VTFSFFNPQDTEENIKG [RRP45] | 2.15 ± 0.081 | 2.55 ± 0.08 | 3.08 ± 0.08 | 3.19 ± 0.076
WRFLQILRNGIDYLQRN [POP1] | 3.05 ± 0.059 | 2.82 ± 0.054 | 2.97 ± 0.052 | 2.72 ± 0.048
VGVIGPLHSGKTSLMDL [SNU114] | 2.97 ± 0.11 | 2.68 ± 0.11 | 3.29 ± 0.19 | 3.13 ± 0.07
ESFPDDIPLAKALDNAC [CDC53] | 2.58 ± 0.07 | 2.97 ± 0.058 | 2.67 ± 0.055 | 2.8 ± 0.045
ATAALEIILKLCRNPLT [YJL039C/NUP192] | 2.03 ± 0.065 | 1.95 ± 0.063 | 1.25 ± 0.098 | 2.38 ± 0.059
ILMGFTLKDNIVVMDCF [RRI1] |  | 1.97 ± 0.084 | 2.74 ± 0.12 | 1.39 ± 0.14
YNSFPHSNLEKISNSKL [SIR4] | 2.77 ± 0.066 | 2.65 ± 0.076 | 2.61 ± 0.043 | 2.76 ± 0.048
LSSVALRSDFYILANHY [YJL039C/NUP192] | 2.06 ± 0.15 | 2.28 ± 0.13 | 1.59 ± 0.24 | 2 ± 0.098
DYFFYFLVLYDVKTAEE [NUT1] | 1.52 ± 0.043 | 1.46 ± 0.044 | 1.62 ± 0.094 | 1.76 ± 0.04
LLRFNGVERLIPVGDNT [PRE4] | 1.58 ± 0.068 | 1.73 ± 0.07 | 1.53 ± 0.13 | 1.86 ± 0.093
DDFQNFFDPKPFDQNLD [SWI1] | 2.53 ± 0.061 | 1.95 ± 0.055 | 2.13 ± 0.1 | 2.12 ± 0.052
TTQDQCKLTLDINVELF [RPB8] | 2.97 ± 0.054 | 2.96 ± 0.07 | 2.93 ± 0.037 | 3.3 ± 0.053
SISGFKEALLGQLLKDH [ARP9] | 2.01 ± 0.19 | 2.29 ± 0.092 | 1.89 ± 0.08 | 2.26 ± 0.068
RELYKYVRKHDPLNSNI [PRP28] | 2.96 ± 0.083 | 2.86 ± 0.082 | 2.96 ± 0.05 | 3.16 ± 0.09
